Data set [1] deals with T1, GST-MYB47 (Arabidopsis thaliana, UniProt Q6R0C2 1-267).
T1 sequence: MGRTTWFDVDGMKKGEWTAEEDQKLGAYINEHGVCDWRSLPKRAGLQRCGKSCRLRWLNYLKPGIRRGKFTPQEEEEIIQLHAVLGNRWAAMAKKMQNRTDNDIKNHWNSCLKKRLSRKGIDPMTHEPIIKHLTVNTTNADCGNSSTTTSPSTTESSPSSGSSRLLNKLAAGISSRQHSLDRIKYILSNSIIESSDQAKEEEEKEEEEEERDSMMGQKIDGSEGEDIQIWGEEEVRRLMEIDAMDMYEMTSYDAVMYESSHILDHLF
Description: competition EMSA; 20-fold excess over pTSA1 probe; 10 mM Tris-HCl pH 7.5, 50 mM KCl, 1 mM DTT, 2.5% glycerol, 5 mM MgCl2, 0.1% IGEPAL CA-630, 0.05 ug/uL poly(dI-dC); 500 ng protein, probe 5 uM; competitor 20 min then probe 30 min at room temperature. Conditions: protein: recombinant; tags: N-terminal GST (pDEST15); blunt.

For data set [2], the target named is T2, GST-MYB95 (Arabidopsis thaliana, UniProt Q7DSY5 1-271).
T2 sequence: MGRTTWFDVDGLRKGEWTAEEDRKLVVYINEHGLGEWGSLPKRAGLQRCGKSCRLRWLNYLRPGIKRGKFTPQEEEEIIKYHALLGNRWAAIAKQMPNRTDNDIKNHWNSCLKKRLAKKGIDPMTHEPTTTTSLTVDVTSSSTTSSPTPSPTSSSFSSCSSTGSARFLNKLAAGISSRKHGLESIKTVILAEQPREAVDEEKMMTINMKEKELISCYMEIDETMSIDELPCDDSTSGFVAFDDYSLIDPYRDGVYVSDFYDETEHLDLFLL
Described as above. Conditions: protein: recombinant; tags: N-terminal GST (pDEST15); blunt.

Data set [3] has as its target T1, GST-MYB47. Description: EMSA; 5 mM Mg2+; 10 mM Tris-HCl pH 7.5, 50 mM KCl, 1 mM DTT, 2.5% glycerol, 5 mM MgCl2, 0.1% IGEPAL CA-630, 0.05 ug/uL poly(dI-dC); 500 ng protein, probe 5 uM; competitor 20 min then probe 30 min at room temperature. Conditions: protein: recombinant; tags: N-terminal GST (pDEST15); label: 5' biotin on strand 1 as probe; blunt.
The target in data set [4] is T2, GST-MYB95. The description is as above. To be noted: protein: recombinant; tags: N-terminal GST (pDEST15); label: 5' biotin on strand 1 as probe; blunt.

B1: pTSA1-m1 (box1 mutated) (dsDNA)
DNA 1: GAATGAAATCTTTCCCCAAGTTAGTTACAACGGTTT
DNA 2: AAACCGTTGTAACTAACTTGGGGAAAGATTTCATTC
On to B1, for which the binding result with GST-MYB47 [1] and with GST-MYB95 [2] was “binds” in each case.

B2: pTSA1 probe (dsDNA)
DNA 1: GAATGAAATCCACGTTTAAGTTAGTTACAACGGTTT
DNA 2: AAACCGTTGTAACTAACTTAAACGTGGATTTCATTC
In the case of B2, the binding result with GST-MYB47 [3] and with GST-MYB95 [4] was “binds” in each case.

B3: pTSA1-m2 (box2 mutated) (dsDNA)
DNA 1: GAATGAAATCCACGTTTAACCCCTTTACAACGGTTT
DNA 2: AAACCGTTGTAAAGGGGTTAAACGTGGATTTCATTC
With B3, the binding result with GST-MYB47 [1] and with GST-MYB95 [2] was “no binding” each time.

For the origin of these results see article PMC12475115, “Arabidopsis MYB47 and MYB95 transcription factors regulate jasmonate-inducible ER-body formation”.
